In patent publication US11666658B2, “Rifamycin analogs and antibody-drug conjugates thereof” (Regeneron Pharmaceuticals, Inc., priority 2018, dated 2023):

T1: His9-hMSR1 (Homo sapiens, UniProt P21757)
T1 construct: human MSR1 extracellular domain expressed with a N-terminal nonahistidine tag; purchased R&D Systems 2708-MS
T1 sequence (P21757 77-451 limits assumed): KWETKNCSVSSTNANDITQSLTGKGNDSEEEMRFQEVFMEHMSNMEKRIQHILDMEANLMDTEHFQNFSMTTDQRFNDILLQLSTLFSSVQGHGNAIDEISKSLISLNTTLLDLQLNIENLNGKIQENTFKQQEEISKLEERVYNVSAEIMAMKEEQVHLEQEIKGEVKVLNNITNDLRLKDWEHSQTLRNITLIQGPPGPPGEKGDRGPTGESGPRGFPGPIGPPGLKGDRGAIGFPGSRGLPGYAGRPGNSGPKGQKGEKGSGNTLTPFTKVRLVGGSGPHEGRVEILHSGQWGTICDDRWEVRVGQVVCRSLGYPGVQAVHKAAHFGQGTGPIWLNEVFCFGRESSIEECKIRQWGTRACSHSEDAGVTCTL

T2: MSR1-mediated DiI-OxLDL uptake in HEK293.Myc.hMSR1 cells (Homo sapiens, UniProt P21757)
T2 construct: expressed in transfected cells; host or cells: HEK293 (lentiviral transduction, hygromycin selection)
T2 sequence (P21757 1-451): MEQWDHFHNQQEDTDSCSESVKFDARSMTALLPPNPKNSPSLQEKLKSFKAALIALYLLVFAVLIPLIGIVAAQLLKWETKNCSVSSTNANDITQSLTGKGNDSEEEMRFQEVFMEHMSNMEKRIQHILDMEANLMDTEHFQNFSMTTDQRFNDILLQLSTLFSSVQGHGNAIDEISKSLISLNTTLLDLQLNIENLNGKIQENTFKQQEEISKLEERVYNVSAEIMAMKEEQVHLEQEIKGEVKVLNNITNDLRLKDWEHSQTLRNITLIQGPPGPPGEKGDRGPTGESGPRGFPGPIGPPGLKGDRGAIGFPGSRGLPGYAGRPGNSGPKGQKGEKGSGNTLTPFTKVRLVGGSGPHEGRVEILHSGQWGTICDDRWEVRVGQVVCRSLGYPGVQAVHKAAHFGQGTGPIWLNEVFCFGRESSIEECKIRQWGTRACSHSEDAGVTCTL

T3: Ox-LDL binding to His9-hMSR1 (Homo sapiens, UniProt P21757)
T3 construct: human MSR1 extracellular domain expressed with a N-terminal nonahistidine tag; purchased R&D Systems 2708-MS
T3 sequence (P21757 77-451 limits assumed): T1 sequence (P21757 77-451 limits assumed)

T4: Ac-LDL binding to His9-hMSR1 (Homo sapiens, UniProt P21757)
T4 construct: human MSR1 extracellular domain expressed with a N-terminal nonahistidine tag; purchased R&D Systems 2708-MS
T4 sequence (P21757 77-451 limits assumed): T1 sequence (P21757 77-451 limits assumed)

T5: biot-AGE-BSA binding to His9-hMSR1 (Homo sapiens, UniProt P21757)
T5 construct: human MSR1 extracellular domain expressed with a N-terminal nonahistidine tag; purchased R&D Systems 2708-MS
T5 sequence (P21757 77-451 limits assumed): T1 sequence (P21757 77-451 limits assumed)

B1: H1H27729P-N297Q: anti-MSR1 antibody; "Antibody H1H27729P-N297Q showed no inhibition of DiI-OxLDL uptake" (antibody, V domains shown)
VH: QVQLVESGGGLVKPGGSLRLSCAASGFIFSDYYMSWIRQAPGKGLEWVSYISSSGTTIYGDSVKGRFTMSRDNAKNSLYLQMNSLRAEDTAVYYCARNYALFDYWGQGTLVTVSS
VL: DIQMTQSPSSLSASVGDRVTITCQASQDISKYLNWYQQKPGKAPKLLIYYTSNLETGVPSRFSGSGSGTDFTFTISSLQPEDIATYYCHQSDYLPFTFGPGTKVDIKR
B2: H1H21227N-N297Q: "modified versions of 21227N (H1H21227N-N297Q and H1H21227N-N297D)"; anti-MSR1 antibody "with a N297Q single point mutation" (antibody, V domains shown)
VH: QVQLVQSGAEVKKPGASVKVSCKVSGYTLTELSIHWVRQVPGKGLEWMGGFDPEEGETIFAQEFRDRVTLTEDTSPDTAYMELSSLKSEDAAVYYCTTPRYCNNGICYDYWGQGTLVTVSS
VL: DIQMTQSPSSLSASVGDRVTITCRASQSISNYLNWYQQKPGKAPKLLIYTASSLQSGVPSRFSGSGSGTDFTLTISSLQTEDFATYYCQQSYSNFPITFGQGTRLEIKR
B3: H1H21227N: "Three anti-MSR1 antibodies ... (21227N, 21231N, 21234N) were produced with the original human Fcγ portion" (antibody, V domains shown)
VH: B2 VH
VL: B2 VL

How the values were obtained:
[1] = target: T1, His9-hMSR1; test: Cross-competition between anti-MSR1 antibodies (OCTET bio-layer interferometry); assay type: binding; conditions: label = first mAb (mAb-1) on His9-hMSR1 captured with anti-Penta-His Octet biosensors; value = competing mAb-2
Experimental: Binding competition between different anti-MSR1 antibodies was assessed using a real time, label-free bio-layer interferometry assay on an OCTET® HTX biosensor platform (Pall FortéBio Corp., Menlo Park, Calif.). The experiment was performed at 25° C. in 10 mM HEPES, 150 mM NaCl, 3 mM EDTA, 0.05% v/v Surfactant Tween-20, and 1 mg/mL BSA, pH 7.4 (HBS-EBT) buffer with the plate shaking at the speed of 1000 rpm.
To assess whether different antibodies are able to compete with one another for binding to their respective epitopes on the recombinant human MSR1 extracellular domain expressed with a N-terminal nonahistidine tag (SEQ ID NO: 688) (His9-hMSR1; R&D Systems, Cat #2708-MS), around […] of His9-hMSR1 was first captured onto anti-Penta-His antibody coated OCTET® biosensor tips (“Penta-His” disclosed as SEQ ID NO: 690) (Pall FortéBio Corp., #18-5122) by submerging the biosensor tips for 45 seconds into wells containing a […] solution of His9-hMSR1. The antigen-captured biosensor tips were then saturated with a first anti-MSR1 monoclonal antibody (subsequently referred to as “mAb-1”) by immersion into wells containing a […] solution of mAb-1 for 4 minutes. The biosensor tips were then submerged into wells containing a […] solution of a second anti-MSR1 monoclonal antibody (subsequently referred to as “mAb-2”) for 4 minutes. All of the biosensor tips were washed in HBS-EBT buffer in between each step of the experiment. The real-time binding response was monitored during the course of the experiment and the binding response at the end of each step was recorded. […] Table 17 explicitly defines the relationships of antibodies competing in both directions, independent of the order of binding.

[2] = target: T2, MSR1-mediated DiI-OxLDL uptake in HEK293.Myc.hMSR1 cells; test: Ligand uptake assay, DiI-OxLDL; assay type: cell-based
Experimental: The resulting cell line, referred to here as “HEK293.Myc.hMSR1”, was selected and maintained in DMEM containing 10% FBS, NEAA, penicillin/streptomycin, L-glutamine, and 100 μg/mL hygromycin.
After 30 minutes, either oxidized or acetylated low-density lipoprotein (LDL) labeled with 1,1′ dioctadecyl-3,3,3′,3′-tetramethylindocarbocyanine perchlorate (referred to as “DiI-OxLDL” or “DiI-AcLDL,” respectively) was added to the cells at a constant concentration of 10 μg/mL. […] Results were analyzed using nonlinear regression (4-parameter logistics) with the Prism 7 program to obtain EC50 and IC50 values. The percentage of inhibition was calculated with the Relative Fluorescent Unit (RFU) values by using the following equation: […]
In the equation, “RFUBaseline” is the fluorescence value from the cells treated with 10 μg/mL ligand without antibodies, “RFUInhibition” is the minimum fluorescence value with for a particular antibody with 10 μg/mL ligand, and “RFUBackground” is the fluorescence value from cells without any ligand or antibodies.

[3] = target: T3, Ox-LDL binding to His9-hMSR1; test: Competition sandwich ELISA, Ox-LDL; conditions: anti-MSR1 antibody 500 nM, Ox-LDL 10 nM
Experimental: (§1) The ability of anti-MSR1 antibodies disclosed herein to block the binding of various ligands to human MSR1 was measured using three competition sandwich ELISA assays. The ligands used in the assays were: (1) acetylated LDL (Ac-LDL), (2) oxidized LDL (Ox-LDL), and (3) advanced glycation end-products of bovine serum albumin (AGE-BSA).
(§2) Anti-MSR1 antibodies or isotype control antibodies were serially diluted as appropriate for each tested ligand and added in duplicate for each serial dilution set to microtiter plates coated with His9-hMSR1. Buffer alone was also added to wells on each coat. […] This assay was conducted in four different assay runs.
(§3) Data analysis was performed using a sigmoidal dose-response model within Prism™ software (GraphPad). Percent blockade at maximum concentration of the antibody tested in each assay was calculated as an indicator of the ability of the antibodies to block the binding of Ac-LDL, Ox-LDL or biot-AGE-BSA to His9-hMSR1 on the plate relative to the baseline of the assay. In the calculation, binding signal of the same concentrations of Ac-LDL, Ox-LDL, or biot-AGE-BSA used for the assays in the absence of antibody was referenced as 100% binding or 0% blocking, while the baseline of the assay, defined as binding signal of the sample of buffer without MSR1 ligands or antibody, was referenced as 0% binding or 100% blocking. The maximum percent blockade at the highest concentration of antibody tested in each assay are reported for all antibodies.

[4] = target: T4, Ac-LDL binding to His9-hMSR1; test: Competition sandwich ELISA, Ac-LDL; conditions: anti-MSR1 antibody 100 nM, 50 pM Ac-LDL
Experimental: as §1, §2, §3

[5] = target: T5, biot-AGE-BSA binding to His9-hMSR1; test: Competition sandwich ELISA, biot-AGE-BSA; conditions: anti-MSR1 antibody 300 nM, 400 pM biot-AGE-BSA
Experimental: as §1
For the assay, recombinant monomeric human MSR1 protein comprised of a portion of the human MSR1 extracellular domain expressed with a N-terminal 9-Histidine tag (SEQ ID NO: 688) (His9-hMSR1; R&D Systems, Cat #2708-MS) was coated at a concentration of […] in PBS on a 96-well microtiter plate overnight at 4° C. for use in competition ELISA assays with Ac-LDL, Ox-LDL, or biotinylated-AGE-BSA (“biot-AGE-BSA”). […] Anti-MSR1 antibodies or isotype control antibodies were serially diluted as appropriate for each tested ligand and added in duplicate for each serial dilution set to microtiter plates coated with His9-hMSR1. Buffer alone was also added to wells on each coat. After 1 hour incubation at room temperature, without wash, a final constant concentration of 50 pM Ac-LDL (Life Technologies/ThermoFisher Scientific, Cat #L-35354), 5 nM or 10 nM Ox-LDL (Alfa Aesar, Cat #J65591), or 400 pM biot-AGE-BSA (R&D Systems, Cat #BT4127) were added to plates with His9-hMSR1, and the plates were incubated for an additional 1 hour at room temperature. (Concentrations of Ac-LDL, Ox-LDL and biot-AGE-BSA for antibody inhibition assays were selected from the approximate midway point within the linear portion of individual binding curves of Ac-LDL, Ox-LDL or biot-AGE-BSA to plate-coated His9-hMSR1.) Wells were washed, and plate-bound Ac-LDL or Ox-LDL were detected with anti-LDL rabbit antibody (Alfa Aesar, Cat #J64398) in combination with anti-rabbit IgG (H+L) specific donkey polyclonal antibodies conjugated with horseradish peroxidase (HRP) (JacksonImmunoResearch, Cat #711-035-152) and biot-AGE-BSA was detected with a streptavidin-HRP (ThermoFisher Scientific, Cat #N200). Plates were developed using TMB substrate solution (BD Biosciences, Cat #51-2606KC & Cat #51-2607KC) according to manufacturer's recommendation and absorbance at 450 nm was measured on a Victor™ Multilabel Plate Reader (PerkinElmer™). This assay was conducted in four different assay runs.
as §3, with “antibodies. Negative percent blockade numbers reflected higher MSR1 ligands binding to plate coated His9-hMSR1 in the presence of antibodies.” for “antibodies.”

Row | Molecule | mAb-2 antibodies which Compete with mAb-1 [1] | inhibition of DiI-OxLDL uptake (in words) [2] | IC50, Dil-Oxidized LDL ([2]; 10 μg/mL DiI-OxLDL) | % Inhibition, Dil-Oxidized LDL ([2]; maximum inhibition of uptake, 10 μg/mL DiI-OxLDL) | % Blocking of Ox-LDL binding to His9-hMSR1 [3] | % Blocking of Ac-LDL binding to His9-hMSR1 [4] | % Blocking of biot-AGE-BSA binding to His9-hMSR1 [5]
1 | B1 | Data Inconclusive** | no inhibition of DiI-OxLDL uptake | no inhibition | no inhibition | – | – | –
2 | B2 | Data Inconclusive** | – | – | – | 97% | 105% | 96%
3 | B3 | Data Inconclusive** | – | – | – | 100% | 105% | 99%
